B1: TPP-973: CD137A-6GS-PDA2-6GS-HSA2-His (bispecific antibody)
chain: EVQLVESGGGLVQPGGSLRLSCAASGFTLSNYWMNWVRQAPGKGLEWVANINQDGSERYYVDSVKGRFTISRDNAKNSLYLQMNSLRAEDTAVYYCARGGEGYGVDHYGLDVSGQGTTVTVSSGGGGSGGGGSGGGGSGGGGSGGGGSGGGGSEVQLVESGGGVVRPGGSLRLSCAASGFTFDDYAMSWVRQAPGKGLEWVSGITWNAGSTGYADSVKGRFTISRDNAKNSLYLQMNSLRAEDTALYYCVRDKYSYAWSYDDFDIWGQGTMVTVSSGGGGSGGGGSGGGGSGGGGSGGGGSGGGGSEVQLVESGGGLVKPGGSLRLSCAASGFTFSNYNMNWVRQAPGKGLEWVSSISSAGTHIYYADSVKGRFTISRDNAKNSLYLQMNSLRAEDTAVYYCARDPHSTGWYKDFDYWGQGTLVTVSSAAAHHHHHH
B2: TPP-1023: CD137A -6GS-HSA3-6GS-PDA-His (bispecific antibody)
chain: EVQLVESGGGLVQPGGSLRLSCAASGFTLSNYWMNWVRQAPGKGLEWVANINQDGSERYYVDSVKGRFTISRDNAKNSLYLQMNSLRAEDTAVYYCARGGEGYGVDHYGLDVSGQGTTVTVSSGGGGSGGGGSGGGGSGGGGSGGGGSGGGGSEVQLLESGGGLVKPGGSLRLSCAASGFTVSSYTMNWVRQAPGKGLEWVSSISSSGRYIYYADSVKGRFTISRDNAKNSLYLQMNSLRAEDTAVYYCARDPRMVGNPHEFDIWGQGTMVTVSSGGGGSGGGGSGGGGSGGGGSGGGGSGGGGSEVQLVESGGGLVQPGRSLRLSCAASGFTFDDYALHWVRQAPGKDLEWVSGISWNGGSYGYADSVKGRFTISRDNAKNSLYLQMNSLRAEDTALYYCVREKGPGLTGSTADYYGLDAWGQGTMVTVSSAAAHHHHHH
notes: Single-chain VH fusion (CD137 VH, HSA VH, PD-1 VH), His tag
B3: TPP-982: CD137A -6GS-HSA2-6GS-PDA-His (bispecific antibody)
chain: EVQLVESGGGLVQPGGSLRLSCAASGFTLSNYWMNWVRQAPGKGLEWVANINQDGSERYYVDSVKGRFTISRDNAKNSLYLQMNSLRAEDTAVYYCARGGEGYGVDHYGLDVSGQGTTVTVSSGGGGSGGGGSGGGGSGGGGSGGGGSGGGGSEVQLVESGGGLVKPGGSLRLSCAASGFTFSNYNMNWVRQAPGKGLEWVSSISSAGTHIYYADSVKGRFTISRDNAKNSLYLQMNSLRAEDTAVYYCARDPHSTGWYKDFDYWGQGTLVTVSSGGGGSGGGGSGGGGSGGGGSGGGGSGGGGSEVQLVESGGGLVQPGRSLRLSCAASGFTFDDYALHWVRQAPGKDLEWVSGISWNGGSYGYADSVKGRFTISRDNAKNSLYLQMNSLRAEDTALYYCVREKGPGLTGSTADYYGLDAWGQGTMVTVSSAAAHHHHHH
notes: as for B2
B4: TPP-983: CD137A -6GS-HSA2-6GS-PDA2-His (bispecific antibody)
chain: EVQLVESGGGLVQPGGSLRLSCAASGFTLSNYWMNWVRQAPGKGLEWVANINQDGSERYYVDSVKGRFTISRDNAKNSLYLQMNSLRAEDTAVYYCARGGEGYGVDHYGLDVSGQGTTVTVSSGGGGSGGGGSGGGGSGGGGSGGGGSGGGGSEVQLVESGGGLVKPGGSLRLSCAASGFTFSNYNMNWVRQAPGKGLEWVSSISSAGTHIYYADSVKGRFTISRDNAKNSLYLQMNSLRAEDTAVYYCARDPHSTGWYKDFDYWGQGTLVTVSSGGGGSGGGGSGGGGSGGGGSGGGGSGGGGSEVQLVESGGGVVRPGGSLRLSCAASGFTFDDYAMSWVRQAPGKGLEWVSGITWNAGSTGYADSVKGRFTISRDNAKNSLYLQMNSLRAEDTALYYCVRDKYSYAWSYDDFDIWGQGTMVTVSSAAAHHHHHH
notes: as for B2
B5: TPP-972: CD137A-6GS-PDA-6GS-HSA2-His (bispecific antibody)
chain: EVQLVESGGGLVQPGGSLRLSCAASGFTLSNYWMNWVRQAPGKGLEWVANINQDGSERYYVDSVKGRFTISRDNAKNSLYLQMNSLRAEDTAVYYCARGGEGYGVDHYGLDVSGQGTTVTVSSGGGGSGGGGSGGGGSGGGGSGGGGSGGGGSEVQLVESGGGLVQPGRSLRLSCAASGFTFDDYALHWVRQAPGKDLEWVSGISWNGGSYGYADSVKGRFTISRDNAKNSLYLQMNSLRAEDTALYYCVREKGPGLTGSTADYYGLDAWGQGTMVTVSSGGGGSGGGGSGGGGSGGGGSGGGGSGGGGSEVQLVESGGGLVKPGGSLRLSCAASGFTFSNYNMNWVRQAPGKGLEWVSSISSAGTHIYYADSVKGRFTISRDNAKNSLYLQMNSLRAEDTAVYYCARDPHSTGWYKDFDYWGQGTLVTVSSAAAHHHHHH
B6: TPP-969: PDA-6GS-HSA2-6GS-172E1-13-His (bispecific antibody)
chain: EVQLVESGGGLVQPGRSLRLSCAASGFTFDDYALHWVRQAPGKDLEWVSGISWNGGSYGYADSVKGRFTISRDNAKNSLYLQMNSLRAEDTALYYCVREKGPGLTGSTADYYGLDAWGQGTMVTVSSGGGGSGGGGSGGGGSGGGGSGGGGSGGGGSEVQLVESGGGLVKPGGSLRLSCAASGFTFSNYNMNWVRQAPGKGLEWVSSISSAGTHIYYADSVKGRFTISRDNAKNSLYLQMNSLRAEDTAVYYCARDPHSTGWYKDFDYWGQGTLVTVSSGGGGSGGGGSGGGGSGGGGSGGGGSGGGGSEVQLVESGGGVVQPGGSLRLSCAASGFTFSNYGMHWVRQAPGKGLEWVAVISNDGNTKTYADSVKGRFTISRDNSKNTLYLQMNSLRAEDTAVYYCAQDETTTVTASYYFDYWGQGTLVTVSSAAAHHHHHH
B7: TPP-985: CD137D -6GS-HSA2-2-6GS-PDA2-His (bispecific antibody)
chain: EVQLVESGGGVVQPGGSLRLSCAASGFTFSNYGMHWVRQAPGKGLEWVAVISNDGNTKTYADSVKGRFTISRDNSKNTLYLQMNSLRAEDTAVYYCAQDETTTVTASYYFDYWGQGTLVTVSSGGGGSGGGGSGGGGSGGGGSGGGGSGGGGSEVQLVESGGGLVKPGGSLRLSCAASGFTFSNYNMNWVRQAPGKGLEWVSSISSAGTHIYYADSVKGRFTISRDNAKNSLYLQMNSLRAEDTAVYYCARDPHSTGWYKDFDYWGQGTLVTVSSGGGGSGGGGSGGGGSGGGGSGGGGSGGGGSEVQLVESGGGVVRPGGSLRLSCAASGFTFDDYAMSWVRQAPGKGLEWVSGITWNAGSTGYADSVKGRFTISRDNAKNSLYLQMNSLRAEDTALYYCVRDKYSYAWSYDDFDIWGQGTMVTVSSAAAHHHHHH
notes: as for B2
B8: TPP-984: CD137D -6GS-HSA2-6GS-PDA-His (bispecific antibody)
chain: EVQLVESGGGVVQPGGSLRLSCAASGFTFSNYGMHWVRQAPGKGLEWVAVISNDGNTKTYADSVKGRFTISRDNSKNTLYLQMNSLRAEDTAVYYCAQDETTTVTASYYFDYWGQGTLVTVSSGGGGSGGGGSGGGGSGGGGSGGGGSGGGGSEVQLVESGGGLVKPGGSLRLSCAASGFTFSNYNMNWVRQAPGKGLEWVSSISSAGTHIYYADSVKGRFTISRDNAKNSLYLQMNSLRAEDTAVYYCARDPHSTGWYKDFDYWGQGTLVTVSSGGGGSGGGGSGGGGSGGGGSGGGGSGGGGSEVQLVESGGGLVQPGRSLRLSCAASGFTFDDYALHWVRQAPGKDLEWVSGISWNGGSYGYADSVKGRFTISRDNAKNSLYLQMNSLRAEDTALYYCVREKGPGLTGSTADYYGLDAWGQGTMVTVSSAAAHHHHHH
notes: as for B2

Legend:
[1] = biological target: T1, biotinylated human PD-1-His tagged protein (human, UniProt Q15116 25-170, biotinylated); experiment: SPR, Biacore 8K, multi-cycle kinetics; biotinylated antigen captured on streptavidin chip; 1:1 model
T1 construct: not shown: His tag
Method: (§1) Multi cycle kinetics assays were then used to evaluate the kinetics and affinity of the interaction. Experiments were performed at […] in HBS-EP+ assay buffer with a flow rate of 30 μl/minute. A streptavidin chip (Streptavidin (SA), Series S, GE Healthcare BR100531) was used to capture the biotinylated human CD137 or human PD-1 reaching a maximum of 75RU or 200RU respectively. A second flow cell without any captured antigen was used as the reference cell. […] The binding kinetics were followed by flowing these over the chip surface. The contact time for the binding steps was 360 or 180 seconds and the dissociation step was 3600 or 1200 seconds for human CD137 and PD1 respectively. After each run, the sensors were regenerated with glycine pH 1.5 to remove the captured Humabody® VH. The data was fitted to a 1:1 binding model after reference subtraction using the Biacore Evaluation software. Example kinetic and binding affinity data obtained is shown Table 19.

[2] = biological target: T2, biotinylated human CD137-His (human, UniProt Q07011 24-186, biotinylated); experiment: as above
T2 construct: not shown: His tag
Method: as §1

[3] = biological target: human CD137 expressed on cells (Jurkat human CD137 NF-kB luciferase reporter cells; human CD8+ T cells) (human, UniProt Q07011 24-255); experiment: cell-based or functional assay
[4] = biological target: T3, human PD-1 expressed on CHO cells (human, UniProt Q15116 21-288); experiment: FMAT/Mirrorball on CHO huPD1 cells
T3 construct: also called CHO huPD1; CHO human PD1 cells
Method: (§2) Binding of His-tagged molecules to CHO human CD137, CHO parent and CHO human PD1 cells was assessed using Fluorescence Microvolume Assay Technology (FMAT). All reagents were prepared in FMAT assay buffer (pH 7.4) containing PBS, 0.1% Bovine Serum Albumin, 0.05% Sodium Azide. […] Fluorescence emission was then measured on the TTP Mirrorball plate reader in the FL2 (502 nm-537 nm) and FL5 (677-800 nm) channels following excitation at 488 nm and 640 nm. Data was gated on FL5 perimeter and peak intensity and the FL2 median mean fluorescence intensity of the gated data used for determination of VH binding. Monovalent CD137 specific Humabody® VH, and trispecific molecules with a CD137 binding arm bound to CHO CD137 expressing cells. Trispecific Humabody® VH, with a PD1 binding arm bound to PD1 expressing cells.

[5] = biological target: T4, human CD137 expressed on CHO cells (human, UniProt Q07011 18-255); experiment: FMAT/Mirrorball on CHO huCD137 cells
T4 construct: also called CHO huCD137; CHO human CD137 cells
Method: as §2

Row | Binder | Kd [1] | koff [1] | kon [1] | Kd [2] | koff [2] | kon [2] | Jurkat-CD137/CHO-PD-1 Reporter Assay EC50 [3] | EC50 [4] | EC50 [5]
1 | B1 | 71.6 nM | 0.014 s⁻¹ | 195000 M⁻¹ s⁻¹ | 0.108 nM | 2.57e-05 s⁻¹ | 237000 M⁻¹ s⁻¹ | 254 pM | – | –
2 | B2 | – | – | – | – | – | – | – | 0.626 nM | 0.145 nM
3 | B3 | – | – | – | – | – | – | – | 0.332 nM | 0.0896 nM
4 | B4 | – | – | – | – | – | – | – | 0.24 nM | 0.0443 nM
5 | B5 | 11.8 nM | 0.000761 s⁻¹ | 64300 M⁻¹ s⁻¹ | 0.01 nM | 1.55e-05 s⁻¹ | 1.54e+06 M⁻¹ s⁻¹ | 321 pM | – | –
6 | B6 | 13.4 nM | 0.000915 s⁻¹ | 68500 M⁻¹ s⁻¹ | 20.9 nM | 0.00255 s⁻¹ | 122000 M⁻¹ s⁻¹ | 11100 pM | – | –
7 | B7 | – | – | – | – | – | – | – | 0.541 nM | 0.382 nM
8 | B8 | – | – | – | – | – | – | – | 0.264 nM | 0.314 nM

— patent US20220220215A1 (CRESCENDO BIOLOGICS, published 2022)
